These results are taken from article PMC7110144.

The target in test [1] is His-CAL1(1-50) (Drosophila melanogaster) (UniProt Q9VEN2). The test can be described thus: SEC-MALS; complexes refolded from recombinant proteins; Superdex 200 increase 10/300 GL, 50 mM HEPES pH 8.0, 2 M NaCl, 1 mM TCEP, 22°C; 100 µl of 1-5 mg/ml.
Test [2] concerns the target His-CAL1(1-160) (Drosophila melanogaster) (UniProt Q9VEN2). The description is as above.

Sequence of His-CAL1(1-160) (Drosophila melanogaster) (Q9VEN2 entry or part of it): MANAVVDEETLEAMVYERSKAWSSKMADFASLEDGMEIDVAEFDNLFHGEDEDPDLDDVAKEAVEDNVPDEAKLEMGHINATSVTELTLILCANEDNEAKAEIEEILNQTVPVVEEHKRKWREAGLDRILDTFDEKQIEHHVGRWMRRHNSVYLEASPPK
Sequence of CENP-A(144-225)-H4 (Q9V6Q2 144-225, one chain of several): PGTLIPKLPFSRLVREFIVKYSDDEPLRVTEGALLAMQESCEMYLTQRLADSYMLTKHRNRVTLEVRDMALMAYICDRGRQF
Sequence of His-CAL1(1-50) (Drosophila melanogaster) (Q9VEN2 entry or part of it): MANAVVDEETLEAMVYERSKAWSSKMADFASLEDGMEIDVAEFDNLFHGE
Sequence of CENP-A(101-225)-H4 (from UniProt Q9V6Q2 101-225; P84040 1-103) (complex; other documents disagree on this pair) (Q9V6Q2 101-225, one chain of several): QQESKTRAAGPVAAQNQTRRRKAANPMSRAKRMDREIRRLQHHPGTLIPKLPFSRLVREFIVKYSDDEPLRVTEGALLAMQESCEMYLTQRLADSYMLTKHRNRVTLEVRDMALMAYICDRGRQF
Sequence of CENP-A(101-225)-H4 (from UniProt Q9V6Q2 101-225; P84040 1-103) (complex) (Q9V6Q2 101-225, one chain of several): as above

For “CENP-A(101-225)-H4 (from UniProt Q9V6Q2 101-225; P84040 1-103) (complex)”, the stoichiometry N (CAL1:CENP-A:H4 = 1:1:1) in test [1] turned out to be 1.
For the substance “CENP-A(101-225)-H4 (from UniProt Q9V6Q2 101-225; P84040 1-103) (complex; other documents disagree on this pair)”, the stoichiometry N (CAL1:CENP-A:H4 = 1:1:1) in test [2] turned out to be 1.
On the same count and under the same terms, as for “CENP-A(144-225)-H4 (from UniProt Q9V6Q2 144-225; P84040 1-103) (complex; other documents disagree on this pair)”, the figure is 1.
